The values that follow come from patent US6703362 (CYTOGEN, dated 2004).

To fix the notation:
T1: hPEPT1 receptor domain (human PEPT1, amino acid residues 391-571), His-tag fusion protein (human, UniProt P46059 391-571)
T1 construct: purified under denaturing conditions; also called recombinant hPEPT1; not shown: poly-histidine tag (pET vector) at the NH2-terminal end
T1 sequence: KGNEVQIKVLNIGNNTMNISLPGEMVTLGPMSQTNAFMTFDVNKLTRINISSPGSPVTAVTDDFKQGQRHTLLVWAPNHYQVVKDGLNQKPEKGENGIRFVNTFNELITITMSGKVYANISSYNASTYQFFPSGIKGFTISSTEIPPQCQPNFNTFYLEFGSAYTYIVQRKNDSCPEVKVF

B1: PAX45 (peptide)
peptide: SFQVYPDHGLERHALDGTGPLYAMPGRWIRARPQNRDRQAETVESCLAKPHTENSFTNVWKDDKTLDRYANYEGCLWNATGVVVCTGDETQCYGTWVPIGLAIPENEGGGSEGGGSEGGGSEGGGTKPPEYGDTPIPGYTYINPLDGTYPPGTEQNPANPNPSLEESQPLNTFMFQNNRFRNRQGALTVYTGTVTQGTDPVKTYYQYTPVSSKAMYDAYWNGKFRDCAFHSGFNEDPFVCEYQGQSSDLPQPPVNAGGGSGGGSGGGSEGGGSEGGGSEGGGSEGGGSGGGSGSGDFDYEKMANANKGAMTENADENALQSDAKGKLDSVATDYGAAIDGFIGDVSGLANGNGATGDFAGSNSQMAQVGDGDNSPLMNNFRQYLPSLPQSVECRPFVFSAGKPYEFSIDCDKINLFRGVFAFLLYVATFMYVFSTFANILRNKES
notes: Assayed as M13 phage clone displaying the insert
B2: PAX43 (peptide)
peptide: RWCEKHKFTAARCSAGAGFERDASRPPQPAHRDNTNRNAAETVESCLAKPHTENSFTNVWKDDKTLDRYANYEGCLWNATGVVVCTGDETQCYGTWVPIGLAIPENEGGGSEGGGSEGGGSEGGGTKPPEYGDTPIPGYTYINPLDGTYPPGTEQNPANPNPSLEESQPLNTFMFQNNRFRNRQGALTVYTGTVTQGTDPVKTYYQYTPVSSKAMYDAYWNGKFRDCAFHSGFNEDPFVCEYQGQSSDLPQPPVNAGGGSGGGSGGGSEGGGSEGGGSEGGGSEGGGSGGGSGSGDFDYEKMANANKGAMTENADENALQSDAKGKLDSVATDYGAAIDGFIGDVSGLANGNGATGDFAGSNSQMAQVGDGDNSPLMNNFRQYLPSLPQSVECRPFVFSAGKPYEFSIDCDKINLFRGVFAFLLYVATFMYVFSTFANILRNKES
notes: as for B1
B3: PAX38 (peptide)
peptide: SSKVSSPRDPTVPRKGGNVDYGCGHRSSARMPTSALSSITKCYTAETVESCLAKPHTENSFTNVWKDDKTLDRYANYEGCLWNATGVVVCTGDETQCYGTWVPIGLAIPENEGGGSEGGGSEGGGSEGGGTKPPEYGDTPIPGYTYINPLDGTYPPGTEQNPANPNPSLEESQPLNTFMFQNNRFRNRQGALTVYTGTVTQGTDPVKTYYQYTPVSSKAMYDAYWNGKFRDCAFHSGFNEDPFVCEYQGQSSDLPQPPVNAGGGSGGGSGGGSEGGGSEGGGSEGGGSEGGGSGGGSGSGDFDYEKMANANKGAMTENADENALQSDAKGKLDSVATDYGAAIDGFIGDVSGLANGNGATGDFAGSNSQMAQVGDGDNSPLMNNFRQYLPSLPQSVECRPFVFSAGKPYEFSIDCDKINLFRGVFAFLLYVATFMYVFSTFANILRNKES
notes: as for B1
B4: 5PAX3 (peptide)
peptide: RPKNVADAYSSQDGAAAEETSHASNAARKSPKHKPLRRPAETVESCLAKPHTENSFTNVWKDDKTLDRYANYEGCLWNATGVVVCTGDETQCYGTWVPIGLAIPENEGGGSEGGGSEGGGSEGGGTKPPEYGDTPIPGYTYINPLDGTYPPGTEQNPANPNPSLEESQPLNTFMFQNNRFRNRQGALTVYTGTVTQGTDPVKTYYQYTPVSSKAMYDAYWNGKFRDCAFHSGFNEDPFVCEYQGQSSDLPQPPVNAGGGSGGGSGGGSEGGGSEGGGSEGGGSEGGGSGGGSGSGDFDYEKMANANKGAMTENADENALQSDAKGKLDSVATDYGAAIDGFIGDVSGLANGNGATGDFAGSNSQMAQVGDGDNSPLMNNFRQYLPSLPQSVECRPFVFSAGKPYEFSIDCDKINLFRGVFAFLLYVATFMYVFSTFANILRNKES
notes: as for B1
B5: PAX35 (peptide)
peptide: RSITDGGINEVDLSSVSNVLENANSHRAYRKHRPTLKRPAETVESCLAKPHTENSFTNVWKDDKTLDRYANYEGCLWNATGVVVCTGDETQCYGTWVPIGLAIPENEGGGSEGGGSEGGGSEGGGTKPPEYGDTPIPGYTYINPLDGTYPPGTEQNPANPNPSLEESQPLNTFMFQNNRFRNRQGALTVYTGTVTQGTDPVKTYYQYTPVSSKAMYDAYWNGKFRDCAFHSGFNEDPFVCEYQGQSSDLPQPPVNAGGGSGGGSGGGSEGGGSEGGGSEGGGSEGGGSGGGSGSGDFDYEKMANANKGAMTENADENALQSDAKGKLDSVATDYGAAIDGFIGDVSGLANGNGATGDFAGSNSQMAQVGDGDNSPLMNNFRQYLPSLPQSVECRPFVFSAGKPYEFSIDCDKINLFRGVFAFLLYVATFMYVFSTFANILRNKES
notes: as for B1
B6: PAX18 (peptide)
peptide: SFLRFQSPRFEDYSRTISRLRNATNPSNVSDAHNNRALAAETVESCLAKPHTENSFTNVWKDDKTLDRYANYEGCLWNATGVVVCTGDETQCYGTWVPIGLAIPENEGGGSEGGGSEGGGSEGGGTKPPEYGDTPIPGYTYINPLDGTYPPGTEQNPANPNPSLEESQPLNTFMFQNNRFRNRQGALTVYTGTVTQGTDPVKTYYQYTPVSSKAMYDAYWNGKFRDCAFHSGFNEDPFVCEYQGQSSDLPQPPVNAGGGSGGGSGGGSEGGGSEGGGSEGGGSEGGGSGGGSGSGDFDYEKMANANKGAMTENADENALQSDAKGKLDSVATDYGAAIDGFIGDVSGLANGNGATGDFAGSNSQMAQVGDGDNSPLMNNFRQYLPSLPQSVECRPFVFSAGKPYEFSIDCDKINLFRGVFAFLLYVATFMYVFSTFANILRNKES
notes: as for B1
B7: PAX46 (peptide)
peptide: SRCTDNEQCPDTGTRSRSVSNARYFSSRLLKTHAPHRPAETVESCLAKPHTENSFTNVWKDDKTLDRYANYEGCLWNATGVVVCTGDETQCYGTWVPIGLAIPENEGGGSEGGGSEGGGSEGGGTKPPEYGDTPIPGYTYINPLDGTYPPGTEQNPANPNPSLEESQPLNTFMFQNNRFRNRQGALTVYTGTVTQGTDPVKTYYQYTPVSSKAMYDAYWNGKFRDCAFHSGFNEDPFVCEYQGQSSDLPQPPVNAGGGSGGGSGGGSEGGGSEGGGSEGGGSEGGGSGGGSGSGDFDYEKMANANKGAMTENADENALQSDAKGKLDSVATDYGAAIDGFIGDVSGLANGNGATGDFAGSNSQMAQVGDGDNSPLMNNFRQYLPSLPQSVECRPFVFSAGKPYEFSIDCDKINLFRGVFAFLLYVATFMYVFSTFANILRNKES
notes: as for B1
B8: PAX17 (peptide)
peptide: SQVDSFRNSFRWYEPSRALCHGCGKRDTSTTRIHNSPSDSYPTRAETVESCLAKPHTENSFTNVWKDDKTLDRYANYEGCLWNATGVVVCTGDETQCYGTWVPIGLAIPENEGGGSEGGGSEGGGSEGGGTKPPEYGDTPIPGYTYINPLDGTYPPGTEQNPANPNPSLEESQPLNTFMFQNNRFRNRQGALTVYTGTVTQGTDPVKTYYQYTPVSSKAMYDAYWNGKFRDCAFHSGFNEDPFVCEYQGQSSDLPQPPVNAGGGSGGGSGGGSEGGGSEGGGSEGGGSEGGGSGGGSGSGDFDYEKMANANKGAMTENADENALQSDAKGKLDSVATDYGAAIDGFIGDVSGLANGNGATGDFAGSNSQMAQVGDGDNSPLMNNFRQYLPSLPQSVECRPFVFSAGKPYEFSIDCDKINLFRGVFAFLLYVATFMYVFSTFANILRNKES
notes: as for B1
B9: PAX40 (peptide)
peptide: RASTQGGRGVAPEFGASVLGRGCGSATYYTNSTSCKDAMGHNYSAETVESCLAKPHTENSFTNVWKDDKTLDRYANYEGCLWNATGVVVCTGDETQCYGTWVPIGLAIPENEGGGSEGGGSEGGGSEGGGTKPPEYGDTPIPGYTYINPLDGTYPPGTEQNPANPNPSLEESQPLNTFMFQNNRFRNRQGALTVYTGTVTQGTDPVKTYYQYTPVSSKAMYDAYWNGKFRDCAFHSGFNEDPFVCEYQGQSSDLPQPPVNAGGGSGGGSGGGSEGGGSEGGGSEGGGSEGGGSGGGSGSGDFDYEKMANANKGAMTENADENALQSDAKGKLDSVATDYGAAIDGFIGDVSGLANGNGATGDFAGSNSQMAQVGDGDNSPLMNNFRQYLPSLPQSVECRPFVFSAGKPYEFSIDCDKINLFRGVFAFLLYVATFMYVFSTFANILRNKES
notes: as for B1

This assay has as its target T1, hPEPT1 receptor domain (human PEPT1, …). Briefly: phage ELISA, plate coated with hPEPT1 domain. The procedure:
6.6. Receptor ELISA Procedure 96 well plates were coated overnight with GIT receptor, BSA and, optionally, IDE (insulin degrading enzyme, an irrelevant His-fusion protein)or hTF. The plates were blocked for one hour with 0.5% BSA-PBS. After clarification, the amplified phage were diluted 1:100 in […] plus 0.05% Tween 20 in PBS and added to the plates. Following incubation of the plates on a rotator for 1 to 2 hours, the plates were washed 5 times with 1% BSA plus 0.05% Tween 20 in PBS. […] After the plates were washed 5 times, as described above, TMB substrate was added to the wells. The plates were read at 650 nm absorbance.
A general note: An ELISA detects its analyte on a solid surface through an enzyme-linked reagent.
Consider B1, for which the OD worked out at 0.419 OD.

With B2, the OD came to 0.345 OD.

With B3, the OD was found to be 0.292 OD.

B4 came in with an OD of 0.173 OD.

With B5, the OD was determined as 0.474 OD.

B6 yielded an OD of 0.416 OD.

On to B7, for which the OD turned out to be 0.429 OD.

The molecule B8 showed an OD of 0.514 OD.

The molecule B9 showed an OD of 0.461 OD.
